Results reported in publication doi:10.1101/2020.09.29.317933 (bioRxiv, 2020).
Where a chain is given by its changes, count along the chain named. Names and notes keep the numbering of the source.

T1: His-tagged lamin A/C 1-300 fragment, Y45C (human), P02545
T1 chain: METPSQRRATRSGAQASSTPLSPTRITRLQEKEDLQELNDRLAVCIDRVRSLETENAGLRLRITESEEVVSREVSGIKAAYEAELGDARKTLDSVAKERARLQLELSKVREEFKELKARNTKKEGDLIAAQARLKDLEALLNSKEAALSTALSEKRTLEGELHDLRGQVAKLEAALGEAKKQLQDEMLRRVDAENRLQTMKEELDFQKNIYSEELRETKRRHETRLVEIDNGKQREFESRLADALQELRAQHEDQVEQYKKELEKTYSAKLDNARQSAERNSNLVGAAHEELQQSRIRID

T2: lamin A/C 250-400 fragment, Y267C, tag-free (human, UniProt P02545 250-400, Y267C)
T2 sequence (looked up): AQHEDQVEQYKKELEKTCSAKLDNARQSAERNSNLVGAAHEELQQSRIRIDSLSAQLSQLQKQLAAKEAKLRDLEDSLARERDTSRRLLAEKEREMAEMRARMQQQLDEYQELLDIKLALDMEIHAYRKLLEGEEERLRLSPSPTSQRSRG

T3: lamin A/C 250-400 fragment, K316C, tag-free (human, UniProt P02545 250-400, K316C)
T3 sequence (looked up): T2 sequence (looked up) with C18Y, K67C

T4: His-tagged lamin A/C 250-400 fragment, L362C (human, UniProt P02545 250-400, L362C)
T4 sequence (looked up): T2 sequence (looked up) with C18Y, L113C

T5: His-tagged lamin A/C 250-400 fragment, wild type (human, UniProt P02545 250-400)
T5 sequence (looked up): T2 sequence (looked up) with C18Y

B1: lamin A/C 250-400 fragment (C-terminal part of coil 2), wild type, tag-free (domain or fragment, human, UniProt P02545 250-400, looked up)
chain: T2 sequence (looked up) with C18Y
B2: His-tagged lamin A/C 1-125 fragment, L35V (domain or fragment, human, UniProt P02545 1-125, looked up)
chain: METPSQRRATRSGAQASSTPLSPTRITRLQEKEDVQELNDRLAVYIDRVRSLETENAGLRLRITESEEVVSREVSGIKAAYEAELGDARKTLDSVAKERARLQLELSKVREEFKELKARNTKKEG
B3: His-tagged lamin A/C 1-125 fragment, Y45C (domain or fragment, human, UniProt P02545 1-125, looked up)
chain: B2 chain with V35L, Y45C
B4: His-tagged lamin A/C 1-125 fragment, L59R (domain or fragment, human, UniProt P02545 1-125, looked up)
chain: B2 chain with V35L, L59R
B5: His-tagged lamin A/C 1-125 fragment, wild type (domain or fragment, human, UniProt P02545 1-125, looked up)
chain: B2 chain with V35L
B6: His-tagged lamin A/C 1-125 fragment, I63S (domain or fragment, human, UniProt P02545 1-125, looked up)
chain: B2 chain with V35L, I63S
B7: His-tagged lamin A/C 1-300 fragment, wild type (domain or fragment, human, UniProt P02545 1-300, looked up)
chain: T1 chain with C45Y
B8: His-tagged lamin A/C 1-300 fragment, L59R (domain or fragment, human, UniProt P02545 1-300, looked up)
chain: T1 chain with C45Y, L59R
B9: His-tagged lamin A/C 1-300 fragment, L35V (domain or fragment, human, UniProt P02545 1-300, looked up)
chain: T1 chain with L35V, C45Y
B10: His-tagged lamin A/C 1-300 fragment, I63S (domain or fragment, human, UniProt P02545 1-300, looked up)
chain: T1 chain with C45Y, I63S
B11: His-tagged lamin A/C 1-300 fragment, Y45C (domain or fragment, human, UniProt P02545 1-300, looked up)
chain: T1 chain
B12: lamin A/C 1-125 fragment, wild type, prey of Fig. 6B (domain or fragment, human, UniProt P02545 1-125, looked up)
chain: B2 chain with V35L

Legend:
[1] = molecular target: T1, His-tagged lamin A/C 1-300 fragment, …; assay: ITC; details: remark: other sources report otherwise
[2] = molecular target: B9; assay: ITC
[3] = molecular target: B8; assay: ITC
[4] = molecular target: B10; assay: ITC
[5] = molecular target: B7; assay: pull-down
[6] = molecular target: B1; assay: pull-down
[7] = molecular target: T2, lamin A/C 250-400 fragment, Y267C, …; assay: pull-down
[8] = molecular target: T3, lamin A/C 250-400 fragment, K316C, …; assay: pull-down
[9] = molecular target: the molecule itself
[10] = molecular target: T4, His-tagged lamin A/C 250-400 fragment, …; assay: pull-down
[11] = molecular target: T5, His-tagged lamin A/C 250-400 fragment, …; assay: pull-down

binding result [6] | Binder | stoichiometry N [9] | other results
– | B1 | – | fold decrease of the eA22 interaction against wild type (from KD) [1]: 5 fold; fold decrease of the eA22 interaction against wild type (from KD) [2]: ~2 fold; fold increase of the eA22 interaction against wild type (from KD) [3]: ~56 fold; fold increase of the eA22 interaction against wild type (from KD) [4]: ~2 fold; binding result [5]: binds
binds | B2 | – | –
binds | B3 | – | –
binds | B4 | – | –
binds | B5 | – | binding result [7]: binds; binding result [8]: binds
binds | B6 | – | –
– | B7 | 2 | –
– | B8 | 2 | –
– | B9 | 2 | –
– | B10 | 2 | –
– | B11 | 2 | –
– | B12 | – | binding result [10]: binds; binding result [11]: binds
